From patent US7470668B2, “Method of use of specific natriuretic peptide receptor c ligands, transgenic non-human mammals expressing specific natriuretic peptide receptor c antagonists and cells thereof” (Enobia Pharma Inc., priority 2005, dated 2008) come the findings set out here.

This assay concerns OVX rat. As to the kind of experiment: Aged rat ovariectomy osteoporosis model, femoral BMD. It counts as in vivo. As to conditions: daily sub-cutaneous injections for 4 weeks, started 4 weeks post-OVX. From the text:
The most widely used non-primate model for pre-clinical osteoporosis studies is the aged rat ovariectomy model (OVX rat). In this model, rapid trabecular bone loss occurs within the first month after ovariectomy (OVX) with an upregulation of both osteoblast and osteoclast activity resulting in increased bone turnover. However, similar to osteoporosis, the levels of osteoclast activity exceed those of osteoblast activity resulting in an imbalance in remodelling and consequently bone loss. […]
Thus, for the testing of potential therapeutic compounds in such a model one has two choices of approach. […] Efficacy can then be measured by assessing the ability of the compound to replace already lost bone. […]
The second approach was adopted to allow the Ostn's therapeutic potential through both anabolic and anti-resorptive efficacies to be assessed. […] Rats were left for a 4-week period following ovariectomy or sham-operation for bone loss to occur and at this point bone loss was assessed by X-ray and DEXA before proceeding with the experiment (groups 1+2). […]
FIG. 10 represents the femoral BMD (i.e. The amount of mineralized bone tissue in a given area, usually calculated as grams per square centimeter) as measured by Piximus™ on excised femurs fixed in 70% ethanol. […]

B1: rhOstn[27-133]: N-terminal 6 histidine-tagged recombinant human Ostn amino acids 27-133 produced in E.coli, SEQ ID NO: 57 (protein)
chain: SVDVTTTEAFDSGVIDVQSTPTVREEKSATDLTAKLLLLDELVSLENDVIETKKKRSFSGFGSPLDRLSAGSVDHKGKQRKVVDHPKRRFGIPMDRIGRNRLSNSRG
modifications: N-terminal His6 tag; recombinant mature osteocrin
For B1, the “gain in femoral BMD over OVX-saline or OVX-mock treated rats” value was 6%.
